Assays:
[1] = molecular target: 重组产生的C末端截短的RSV(A2毒株)F蛋白 (RSV(A2毒株)) (UniProt P03420)
[2] = molecular target: 重组产生的C末端截短的RSV(A2毒株)F蛋白 (RSV(A2毒株)) (UniProt P03420); assay: SPR (BIAcore 3000); truncated F protein on CM5 chip at low density; off-rate at the instrument's detection limit, so an estimate

Sequence of UniProt P03420 (P03420 26-524): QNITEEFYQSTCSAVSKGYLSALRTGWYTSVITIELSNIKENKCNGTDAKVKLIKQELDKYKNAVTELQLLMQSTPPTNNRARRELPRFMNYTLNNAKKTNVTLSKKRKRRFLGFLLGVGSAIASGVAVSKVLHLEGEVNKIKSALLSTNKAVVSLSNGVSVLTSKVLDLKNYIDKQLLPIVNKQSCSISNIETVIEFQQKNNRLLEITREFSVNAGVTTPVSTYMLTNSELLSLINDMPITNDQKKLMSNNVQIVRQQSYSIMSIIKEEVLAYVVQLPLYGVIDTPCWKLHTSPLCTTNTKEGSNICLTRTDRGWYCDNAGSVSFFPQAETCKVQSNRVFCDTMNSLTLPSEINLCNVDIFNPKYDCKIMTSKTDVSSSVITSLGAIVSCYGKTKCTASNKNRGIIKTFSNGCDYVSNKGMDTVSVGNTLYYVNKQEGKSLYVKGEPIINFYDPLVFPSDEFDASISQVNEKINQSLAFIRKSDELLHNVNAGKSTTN

A4B4L1FR-S28R(莫维珠单抗) (antibody)
fold higher affinity than palivizumab [1]: 70 fold | fold higher association rate (kon) than palivizumab [1]: 4 fold | fold lower dissociation rate (koff) than palivizumab [2]: 17 fold

From CN101273061A
